Measurements: article PMC10853779

Biological target: T1, phosphorylated NarL (E. coli nitrate-responsive transcription regulator), wild type (E. coli K12), P0AF28
T1 chain: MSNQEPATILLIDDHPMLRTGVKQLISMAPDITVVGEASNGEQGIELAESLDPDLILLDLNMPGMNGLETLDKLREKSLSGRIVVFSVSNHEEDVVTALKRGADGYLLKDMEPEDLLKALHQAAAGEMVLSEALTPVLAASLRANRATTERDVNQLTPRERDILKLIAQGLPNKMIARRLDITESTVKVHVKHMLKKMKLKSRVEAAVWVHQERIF
Test: cryo-EM structure
Conditions: remark: other sources report otherwise

B1: phosphorylated NarL (E. coli nitrate-responsive transcription regulator), wild type, P0AF28 1-216 (natural protein)
chain: MSNQEPATILLIDDHPMLRTGVKQLISMAPDITVVGEASNGEQGIELAESLDPDLILLDLNMPGMNGLETLDKLREKSLSGRIVVFSVSNHEEDVVTALKRGADGYLLKDMEPEDLLKALHQAAAGEMVLSEALTPVLAASLRANRATTERDVNQLTPRERDILKLIAQGLPNKMIARRLDITESTVKVHVKHMLKKMKLKSRVEAAVWVHQERIF
For B1, the stoichiometry N was 2.
